Experimental data from PMC10786891, “Massively parallel profiling of RNA-targeting CRISPR-Cas13d”.

T1: EsCas13d, nuclease-dead (Eubacterium siraeum, UniProt B0MS50, R295A;H300A;R849A;H854A)
T1 sequence: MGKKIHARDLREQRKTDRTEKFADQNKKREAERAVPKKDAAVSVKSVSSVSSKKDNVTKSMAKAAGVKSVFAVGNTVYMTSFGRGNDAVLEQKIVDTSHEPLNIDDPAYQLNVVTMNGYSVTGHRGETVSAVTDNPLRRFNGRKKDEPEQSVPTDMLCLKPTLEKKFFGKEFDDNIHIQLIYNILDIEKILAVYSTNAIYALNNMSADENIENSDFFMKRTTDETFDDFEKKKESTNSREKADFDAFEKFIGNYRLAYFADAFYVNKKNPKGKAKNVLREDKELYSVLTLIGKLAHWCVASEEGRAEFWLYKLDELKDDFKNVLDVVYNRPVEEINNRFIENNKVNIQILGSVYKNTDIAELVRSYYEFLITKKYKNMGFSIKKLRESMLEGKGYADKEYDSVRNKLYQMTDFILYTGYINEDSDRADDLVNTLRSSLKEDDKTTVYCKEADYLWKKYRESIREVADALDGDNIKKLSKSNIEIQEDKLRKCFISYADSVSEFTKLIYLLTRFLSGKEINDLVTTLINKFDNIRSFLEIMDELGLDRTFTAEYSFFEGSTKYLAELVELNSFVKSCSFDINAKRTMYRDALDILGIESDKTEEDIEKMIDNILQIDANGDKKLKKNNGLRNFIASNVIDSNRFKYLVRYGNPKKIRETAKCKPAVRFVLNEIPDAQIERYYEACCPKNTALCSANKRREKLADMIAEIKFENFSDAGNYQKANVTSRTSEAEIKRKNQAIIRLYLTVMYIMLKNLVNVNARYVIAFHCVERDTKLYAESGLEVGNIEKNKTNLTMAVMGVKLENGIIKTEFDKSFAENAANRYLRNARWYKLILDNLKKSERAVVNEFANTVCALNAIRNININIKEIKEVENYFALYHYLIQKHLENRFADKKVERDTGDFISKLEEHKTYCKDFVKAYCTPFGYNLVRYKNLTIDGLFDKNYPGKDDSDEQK

B1: target 1 insC 3' of 20,insA 3' of 19 (mixed)
RNA 1: CACCCGUGCAAAAAUGCAGGGGUCUAAAACUGAGCGGAUAACCUCUCUAUGG
RNA 2: GGGAAUGGAUCCACAUCUACGAAUUCGUACCACUAAGAGAGGUUAUCCGCUCACCGAGAUCGGAAGAGCACACGU
B2: target 1 insA 3' of 13,insA 3' of 8 (mixed)
RNA 1: CACCCGUGCAAAAAUGCAGGGGUCUAAAACUGAGCGGAUAACCUCUCUAUGG
RNA 2: GGGAAUGGAUCCACAUCUACGAAUUCGUACCAUAGAGAGAGUUAUACCGCUCACCGAGAUCGGAAGAGCACACGU
B3: target 1 U3A,C7U (mixed)
RNA 1: CACCCGUGCAAAAAUGCAGGGGUCUAAAACUGAGCGGAUAACCUCUCUAUGG
RNA 2: GGGAAUGGAUCCACAUCUACGAAUUCGUACCAUAGAGAGGUUAUUCGCACACCGAGAUCGGAAGAGCACACGU
B4: target 1 insC 3' of 14,insU 3' of 6 (mixed)
RNA 1: CACCCGUGCAAAAAUGCAGGGGUCUAAAACUGAGCGGAUAACCUCUCUAUGG
RNA 2: GGGAAUGGAUCCACAUCUACGAAUUCGUACCAUAGAGACGGUUAUCCUGCUCACCGAGAUCGGAAGAGCACACGU
B5: target 1 insG 3' of 10,insG 3' of 4 (mixed)
RNA 1: CACCCGUGCAAAAAUGCAGGGGUCUAAAACUGAGCGGAUAACCUCUCUAUGG
RNA 2: GGGAAUGGAUCCACAUCUACGAAUUCGUACCAUAGAGAGGUUGAUCCGCGUCACCGAGAUCGGAAGAGCACACGU
B6: target 1 U3A,G15A (mixed)
RNA 1: CACCCGUGCAAAAAUGCAGGGGUCUAAAACUGAGCGGAUAACCUCUCUAUGG
RNA 2: GGGAAUGGAUCCACAUCUACGAAUUCGUACCAUAGAAAGGUUAUCCGCACACCGAGAUCGGAAGAGCACACGU
B7: target 1 insA 3' of 15,insA 3' of 6 (mixed)
RNA 1: CACCCGUGCAAAAAUGCAGGGGUCUAAAACUGAGCGGAUAACCUCUCUAUGG
RNA 2: GGGAAUGGAUCCACAUCUACGAAUUCGUACCAUAGAGAAGGUUAUCCAGCUCACCGAGAUCGGAAGAGCACACGU
B8: target 1 insA 3' of 17,insU 3' of 13 (mixed)
RNA 1: CACCCGUGCAAAAAUGCAGGGGUCUAAAACUGAGCGGAUAACCUCUCUAUGG
RNA 2: GGGAAUGGAUCCACAUCUACGAAUUCGUACCAUAGAAGAGUGUUAUCCGCUCACCGAGAUCGGAAGAGCACACGU
B9: target 1 insU 3' of 21,insC 3' of 8 (mixed)
RNA 1: CACCCGUGCAAAAAUGCAGGGGUCUAAAACUGAGCGGAUAACCUCUCUAUGG
RNA 2: GGGAAUGGAUCCACAUCUACGAAUUCGUACCUAUAGAGAGGUUAUCCCGCUCACCGAGAUCGGAAGAGCACACGU
B10: target 1 U3C,U11G (mixed)
RNA 1: CACCCGUGCAAAAAUGCAGGGGUCUAAAACUGAGCGGAUAACCUCUCUAUGG
RNA 2: GGGAAUGGAUCCACAUCUACGAAUUCGUACCAUAGAGAGGGUAUCCGCCCACCGAGAUCGGAAGAGCACACGU
B11: target 1 C2U,C22U (mixed)
RNA 1: CACCCGUGCAAAAAUGCAGGGGUCUAAAACUGAGCGGAUAACCUCUCUAUGG
RNA 2: GGGAAUGGAUCCACAUCUACGAAUUCGUAUCAUAGAGAGGUUAUCCGCUUACCGAGAUCGGAAGAGCACACGU
B12: target 1 insU 3' of 21,insU 3' of 12 (mixed)
RNA 1: CACCCGUGCAAAAAUGCAGGGGUCUAAAACUGAGCGGAUAACCUCUCUAUGG
RNA 2: GGGAAUGGAUCCACAUCUACGAAUUCGUACCUAUAGAGAGGUUUAUCCGCUCACCGAGAUCGGAAGAGCACACGU
B13: target 1 insG 3' of 22,insA 3' of 15 (mixed)
RNA 1: CACCCGUGCAAAAAUGCAGGGGUCUAAAACUGAGCGGAUAACCUCUCUAUGG
RNA 2: GGGAAUGGAUCCACAUCUACGAAUUCGUACGCAUAGAGAAGGUUAUCCGCUCACCGAGAUCGGAAGAGCACACGU
B14: target 1 insA 3' of 5,insA 3' of 5 (mixed)
RNA 1: CACCCGUGCAAAAAUGCAGGGGUCUAAAACUGAGCGGAUAACCUCUCUAUGG
RNA 2: GGGAAUGGAUCCACAUCUACGAAUUCGUACCAUAGAGAGGUUAUCCGAACUCACCGAGAUCGGAAGAGCACACGU
B15: target 1 C4G,U8C (mixed)
RNA 1: CACCCGUGCAAAAAUGCAGGGGUCUAAAACUGAGCGGAUAACCUCUCUAUGG
RNA 2: GGGAAUGGAUCCACAUCUACGAAUUCGUACCAUAGAGAGGUUACCCGGUCACCGAGAUCGGAAGAGCACACGU
B16: target 1 U3G,C4G (mixed)
RNA 1: CACCCGUGCAAAAAUGCAGGGGUCUAAAACUGAGCGGAUAACCUCUCUAUGG
RNA 2: GGGAAUGGAUCCACAUCUACGAAUUCGUACCAUAGAGAGGUUAUCCGGGCACCGAGAUCGGAAGAGCACACGU
B17: target 1 insA 3' of 13,insC 3' of 8 (mixed)
RNA 1: CACCCGUGCAAAAAUGCAGGGGUCUAAAACUGAGCGGAUAACCUCUCUAUGG
RNA 2: GGGAAUGGAUCCACAUCUACGAAUUCGUACCAUAGAGAGAGUUAUCCCGCUCACCGAGAUCGGAAGAGCACACGU
B18: target 1 insU 3' of 7,insC 3' of 5 (mixed)
RNA 1: CACCCGUGCAAAAAUGCAGGGGUCUAAAACUGAGCGGAUAACCUCUCUAUGG
RNA 2: GGGAAUGGAUCCACAUCUACGAAUUCGUACCAUAGAGAGGUUAUCUCGCCUCACCGAGAUCGGAAGAGCACACGU
B19: target 1 U3C,C4U (mixed)
RNA 1: CACCCGUGCAAAAAUGCAGGGGUCUAAAACUGAGCGGAUAACCUCUCUAUGG
RNA 2: GGGAAUGGAUCCACAUCUACGAAUUCGUACCAUAGAGAGGUUAUCCGUCCACCGAGAUCGGAAGAGCACACGU
B20: target 1 C6U,A18G (mixed)
RNA 1: CACCCGUGCAAAAAUGCAGGGGUCUAAAACUGAGCGGAUAACCUCUCUAUGG
RNA 2: GGGAAUGGAUCCACAUCUACGAAUUCGUACCAUGGAGAGGUUAUCUGCUCACCGAGAUCGGAAGAGCACACGU
B21: target 1 insC 3' of 12,insA 3' of 3 (mixed)
RNA 1: CACCCGUGCAAAAAUGCAGGGGUCUAAAACUGAGCGGAUAACCUCUCUAUGG
RNA 2: GGGAAUGGAUCCACAUCUACGAAUUCGUACCAUAGAGAGGCUUAUCCGCUACACCGAGAUCGGAAGAGCACACGU
B22: target 1 C2A,G15A (mixed)
RNA 1: CACCCGUGCAAAAAUGCAGGGGUCUAAAACUGAGCGGAUAACCUCUCUAUGG
RNA 2: GGGAAUGGAUCCACAUCUACGAAUUCGUACCAUAGAAAGGUUAUCCGCUAACCGAGAUCGGAAGAGCACACGU
B23: target 1 C6A,A16U (mixed)
RNA 1: CACCCGUGCAAAAAUGCAGGGGUCUAAAACUGAGCGGAUAACCUCUCUAUGG
RNA 2: GGGAAUGGAUCCACAUCUACGAAUUCGUACCAUAGUGAGGUUAUCAGCUCACCGAGAUCGGAAGAGCACACGU
B24: target 1 insC 3' of 19,insC 3' of 15 (mixed)
RNA 1: CACCCGUGCAAAAAUGCAGGGGUCUAAAACUGAGCGGAUAACCUCUCUAUGG
RNA 2: GGGAAUGGAUCCACAUCUACGAAUUCGUACCAUCAGAGCAGGUUAUCCGCUCACCGAGAUCGGAAGAGCACACGU

Target: T1, EsCas13d, nuclease-dead
Experiment: crRNA (strand 1, pre-loaded); Mg2+; 40 mM Tris-HCl pH 7.5, 150 mM NaCl, 6 mM MgCl2, 1 mM DTT, 0.1% Tween-20, 0.2 mg/ml BSA; 25 C; 10 min per concentration, then washed
Conditions: tags: His6-TwinStrep-SUMO cleaved; N-terminal SNAP kept (SNAP-Surface 488); label: 3' end held by stalled T7 RNA polymerase

Row | Binder | Kd
1 | B1 | 9.1 ± 1 nM
2 | B2 | 4.8 ± 0.23 nM
3 | B3 | 5.4 ± 0.4 nM
4 | B4 | 53 ± 25 nM
5 | B5 | 35 ± 7 nM
6 | B6 | 20 ± 4 nM
7 | B7 | 14.4 ± 1.4 nM
8 | B8 | 22 ± 4 nM
9 | B9 | 71 ± 15 nM
10 | B10 | 35 ± 4 nM
11 | B11 | 26 ± 6 nM
12 | B12 | 21.5 ± 1.3 nM
13 | B13 | 17.2 ± 1.6 nM
14 | B14 | 8.5 ± 0.7 nM
15 | B15 | 4.64 ± 0.25 nM
16 | B16 | 5.2 ± 0.4 nM
17 | B17 | 6.4 ± 0.8 nM
18 | B18 | 12.5 ± 0.5 nM
19 | B19 | 49 ± 8 nM
20 | B20 | 54 ± 18 nM
21 | B21 | 9.3 ± 0.8 nM
22 | B22 | 20.2 ± 0.9 nM
23 | B23 | 44 ± 4 nM
24 | B24 | 45 ± 5 nM
